From US20260015426A1 (23ANDME, published 2026)
Positions count from the first letter of the chain named. In names and notes the source's numbering stands.

Tests used:
[1] = target: T1, hu-M-IL1RAP construct, positions S21-T367 (extracellular domain of the membrane form of human IL1RAP) (human, UniProt Q9NPH3 21-367); assay: SPR, Fab against parent Fab
T1 construct: Biotinylated when captured on the Biacore chip
T1 sequence: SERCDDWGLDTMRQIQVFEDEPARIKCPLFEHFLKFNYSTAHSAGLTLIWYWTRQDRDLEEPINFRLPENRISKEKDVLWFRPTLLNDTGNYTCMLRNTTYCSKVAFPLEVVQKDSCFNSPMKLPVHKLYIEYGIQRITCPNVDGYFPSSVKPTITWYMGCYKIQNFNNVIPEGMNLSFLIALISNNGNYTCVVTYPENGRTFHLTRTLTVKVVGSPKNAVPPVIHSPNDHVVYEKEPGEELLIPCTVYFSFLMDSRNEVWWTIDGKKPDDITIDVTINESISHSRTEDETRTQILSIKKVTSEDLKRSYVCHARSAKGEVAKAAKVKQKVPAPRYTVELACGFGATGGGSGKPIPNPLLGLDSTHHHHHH

[2] = target: T1, hu-M-IL1RAP construct, positions …; assay: SPR, Fab analyte, 25 C
[3] = target: T1, hu-M-IL1RAP construct, positions …; assay: phage display selection of affinity maturation libraries + NGS; enrichment of the mutation Y30W (VL)
[4] = target: T1, hu-M-IL1RAP construct, positions …; assay: phage display selection of affinity maturation libraries + NGS; enrichment of the mutation L33G (VL)
[5] = target: T1, hu-M-IL1RAP construct, positions …; assay: phage display selection of affinity maturation libraries + NGS; enrichment of the mutation W92K (VL)
[6] = target: T1, hu-M-IL1RAP construct, positions …; assay: phage display selection of affinity maturation libraries + NGS; enrichment of the mutation W92L (VL)
[7] = target: T1, hu-M-IL1RAP construct, positions …; assay: phage display selection of affinity maturation libraries + NGS; enrichment of the mutation A51R (VL)
[8] = target: T1, hu-M-IL1RAP construct, positions …; assay: phage display selection of affinity maturation libraries + NGS; enrichment of the mutation A51L (VL)
[9] = target: T1, hu-M-IL1RAP construct, positions …; assay: phage display selection of affinity maturation libraries + NGS; enrichment of the mutation A51D (VL)
[10] = target: T1, hu-M-IL1RAP construct, positions …; assay: SPR, IgG analyte (apparent), pH 7.4, 37 C
[11] = target: T2, cyno-M-IL1RAP construct, positions S21-T367 (cynomolgus monkey, UniProt P59822 21-367 (rhesus entry)); assay: SPR, IgG analyte (apparent), pH 7.4, 37 C
T2 construct: Biotinylated when captured on the Biacore chip; also called cy-M-IL1RAP
T2 sequence: T1 sequence with L183F, T273P, K326T

[12] = target: T3, human IL1RAP (hu-IL1RAP) on human cells (human, UniProt Q9NPH3 21-570); assay: cell-based or functional assay
T3 sequence: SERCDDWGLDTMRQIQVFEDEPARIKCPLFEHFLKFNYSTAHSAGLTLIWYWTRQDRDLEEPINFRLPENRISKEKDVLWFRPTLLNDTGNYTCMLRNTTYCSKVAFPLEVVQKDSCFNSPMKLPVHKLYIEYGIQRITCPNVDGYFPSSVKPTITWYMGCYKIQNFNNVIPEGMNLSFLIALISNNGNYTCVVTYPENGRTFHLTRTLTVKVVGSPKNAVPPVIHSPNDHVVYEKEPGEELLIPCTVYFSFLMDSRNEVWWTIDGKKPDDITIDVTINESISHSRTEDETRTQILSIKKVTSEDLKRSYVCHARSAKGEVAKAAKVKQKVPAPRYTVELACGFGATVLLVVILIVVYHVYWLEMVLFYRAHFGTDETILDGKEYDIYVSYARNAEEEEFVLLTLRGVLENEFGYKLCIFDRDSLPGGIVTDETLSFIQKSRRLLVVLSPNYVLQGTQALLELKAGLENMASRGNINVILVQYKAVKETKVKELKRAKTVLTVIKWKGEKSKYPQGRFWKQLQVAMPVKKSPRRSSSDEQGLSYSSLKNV

[13] = target: T1, hu-M-IL1RAP construct, positions …; assay: SPR, against YKD
[14] = target: T2, cyno-M-IL1RAP construct, positions …; assay: SPR, against YKD
[15] = target: T4, biotinylated human FcRn (Acro biosystems, catalogue number FCN-H52W7) (human, UniProt P55899 24-297; P61769 21-119, biotinylated); assay: SPR steady state, FcRn captured, 25 C, pH 6.0; pH 6.0
T4 construct: Bought reagent; also called hu-FcRn
T4 sequence (P55899 24-297 limits assumed, chain 1 of 2): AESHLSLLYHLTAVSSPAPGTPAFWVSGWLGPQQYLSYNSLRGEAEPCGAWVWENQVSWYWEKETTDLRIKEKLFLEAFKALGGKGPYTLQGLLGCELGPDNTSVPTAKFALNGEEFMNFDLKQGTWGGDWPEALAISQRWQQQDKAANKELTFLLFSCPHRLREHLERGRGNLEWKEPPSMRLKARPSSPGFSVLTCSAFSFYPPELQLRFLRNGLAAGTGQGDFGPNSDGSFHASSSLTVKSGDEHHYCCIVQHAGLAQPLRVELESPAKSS
T4 sequence (P61769 21-119 limits assumed, chain 2 of 2): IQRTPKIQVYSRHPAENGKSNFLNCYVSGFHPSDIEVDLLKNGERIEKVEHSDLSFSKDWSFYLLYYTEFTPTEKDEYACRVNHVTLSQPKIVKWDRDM

[16] = target: T5, biotinylated cyno FcRn (Acro biosystems, catalogue number FCM-C5284) (cynomolgus monkey, UniProt Q8SPV9 24-297; Q8SPW0 21-119, limits assumed, biotinylated); assay: as above
T5 construct: Bought reagent

[17] = target: T1, hu-M-IL1RAP construct, positions …; assay: SPR, against YIS
[18] = target: T2, cyno-M-IL1RAP construct, positions …; assay: SPR, against YIS

B1: K1 Fab (VL Y30W) (Fab, V domains shown)
VH: EVQLVESGGGLVQPGGSLRLSCAASGFTFSNYAMSWVRQAPGKGLEWVATVTEGGDYNYYLDDVKGRFTISRDNAKNSLYLQMNSLRAEDTAVYYCARDRWPYFFDYWGQGTLVTVSS
VL: DIQMTQSPSSLSASVGDRVTITCRASENIWSNLAWYQQKPGKSPKLLVYGAKNLADGVPSRFSGSGSGTDYTLTISSLQPEDFATYYCQHFWTTPRTFGGGTKVEIK
notes: Fab with 8xHis tag
- Fold Improvement in KD @ 25° C. [1]: 9.06 fold
- Kd [2]: 0.0372 nM
- koff [2]: 0.00018 s⁻¹
- kon [2]: 4.82e+06 M⁻¹ s⁻¹
- Enrichment ratio (at the highest selection stringency) [3]: 3.52 ratio

B2: K2 Fab (VL L33G) (Fab, V domains shown)
VH: B1 VH
VL: B1 VL with W30Y, L33G
notes: Fab with 8xHis tag
- Fold Improvement in KD @ 25° C. [1]: 9.74 fold
- Enrichment ratio (at the highest selection stringency) [4]: 1.71 ratio
- Kd [2]: 0.0346 nM
- koff [2]: 0.000158 s⁻¹
- kon [2]: 4.57e+06 M⁻¹ s⁻¹

B3: K3 Fab (VL W92K) (Fab, V domains shown)
VH: B1 VH
VL: B1 VL with W30Y, W92K
notes: Fab with 8xHis tag
- Fold Improvement in KD @ 25° C. [1]: 6.44 fold
- Enrichment ratio (at the highest selection stringency) [5]: 3.31 ratio
- Kd [2]: 0.0523 nM
- koff [2]: 0.000198 s⁻¹
- kon [2]: 3.78e+06 M⁻¹ s⁻¹

B4: K4 Fab (VL W92L) (Fab, V domains shown)
VH: B1 VH
VL: B1 VL with W30Y, W92L
notes: Fab with 8xHis tag
- Fold Improvement in KD @ 25° C. [1]: 2.29 fold
- Kd [2]: 0.147 nM
- koff [2]: 0.000751 s⁻¹
- kon [2]: 5.12e+06 M⁻¹ s⁻¹
- Enrichment ratio (at the highest selection stringency) [6]: 0.416 ratio

B5: K7 Fab (VL A51R) (Fab, V domains shown)
VH: B1 VH
VL: B1 VL with W30Y, A51R
notes: Fab with 8xHis tag
- Fold Improvement in KD @ 25° C. [1]: 28.3 fold
- Enrichment ratio (at the highest selection stringency) [7]: 2.89 ratio
- Kd [2]: 0.0119 nM
- koff [2]: 6.26e-05 s⁻¹
- kon [2]: 5.25e+06 M⁻¹ s⁻¹

B6: K8 Fab (VL A51L) (Fab, V domains shown)
VH: B1 VH
VL: B1 VL with W30Y, A51L
notes: Fab with 8xHis tag
- Fold Improvement in KD @ 25° C. [1]: 25.7 fold
- Kd [2]: 0.0131 nM
- koff [2]: 6.76e-05 s⁻¹
- kon [2]: 5.15e+06 M⁻¹ s⁻¹
- Enrichment ratio (at the highest selection stringency) [8]: 2.9 ratio

B7: K9 Fab (VL A51D) (Fab, V domains shown)
VH: B1 VH
VL: B1 VL with W30Y, A51D
notes: Fab with 8xHis tag
- Fold Improvement in KD @ 25° C. [1]: 16.1 fold
- Kd [2]: 0.021 nM
- koff [2]: 0.000103 s⁻¹
- kon [2]: 4.93e+06 M⁻¹ s⁻¹
- Enrichment ratio (at the highest selection stringency) [9]: 2.84 ratio

B8: h11C5 variant YKD/YTE (antibody, human IgG1, kappa, N297G)
heavy: EVQLVESGGGLVQPGGSLRLSCAASGFTFSNYAMSWVRQAPGKGLEWVATVTEGGDYNYYLDDVKGRFTISRDNAKNSLYLQMNSLRAEDTAVYYCARDDWPYFFDYWGQGTLVTVSSASTKGPSVFPLAPSSKSTSGGTAALGCLVKDYFPEPVTVSWNSGALTSGVHTFPAVLQSSGLYSLSSVVTVPSSSLGTQTYICNVNHKPSNTKVDKKVEPKSCDKTHTCPPCPAPELLGGPSVFLFPPKPKDTLYITREPEVTCVVVDVSHEDPEVKFNWYVDGVEVHNAKTKPREEQYGSTYRVVSVLTVLHQDWLNGKEYKCKVSNKALPAPIEKTISKAKGQPREPQVYTLPPSRDELTKNQVSLTCLVKGFYPSDIAVEWESNGQPENNYKTTPPVLDSDGSFFLYSKLTVDKSRWQQGNVFSCSVMHEALHNHYTQKSLSLSPGK
light: DIQMTQSPSSLSASVGDRVTITCRASENIYSNLAWYQQKPGKSPKLLVYGYKNLADGVPSRFSGSGSGTDYTLTISSLQPEDFATYYCQHFKTTPRTFGGGTKVEIKRTVAAPSVFIFPPSDEQLKSGTASVVCLLNNFYPREAKVQWKVDNALQSGNSQESVTEQDSKDSTYSLSSTLTLSKADYEKHKVYACEVTHQGLSSPVTKSFNRGEC
notes: YKD with M252Y/S254T/T256E (Eu index) in the Fc; N297G; also called 11C5-YKD/YTE; YKDNTE
- Kd [10]: 0.0254 nM
- koff [10]: 5.12e-05 s⁻¹
- kon [10]: 2.02e+06 M⁻¹ s⁻¹
- Kd [11]: 0.0219 nM
- koff [11]: 4.9e-05 s⁻¹
- kon [11]: 2.24e+06 M⁻¹ s⁻¹
- CD4+ T cells, IL-33+IL-12 stimulated IFN-γ, IC50 [12]: 44 nM
- HEK-Blue, IL-1β, IC50 [12]: 0.51 nM
- HEK-Blue, IL-33, % inhibition at 100 nM [12]: 97%
- HEK-Blue, IL-33, IC50 [12]: 3.3 nM
- HEK-Blue, IL-36β, IC50 [12]: 0.9 nM
- HEKn, IL-36β stimulated IL-8, IC50 [12]: 1.16 nM
- NK cells, IL-33+IL-12 stimulated IFN-γ, IC50 [12]: 1.32 nM
- PHLF, IL-1α stimulated IL-8, IC50 [12]: 6.47 nM
- PHLF, IL-36β stimulated IL-8, IC50 [12]: 0.5 nM
- basophils, IL-33 stimulated p38 phosphorylation, IC50 [12]: 41 nM
- monocytes, IL-1β stimulated IL-6, IC50 [12]: 0.158 nM
- KD YTE/KD Parental [13]: 0.84 ratio
- KD YTE/KD Parental [14]: 0.98 ratio
- Kd [15]: 130 nM
- Kd [16]: 21.4 nM

B9: h11C5 variant YIS/YTE (antibody, human IgG1, kappa, N297G)
heavy: B8 heavy with V51S, D100R
light: B8 light with K92I
notes: YIS with M252Y/S254T/T256E (Eu index) in the Fc; N297G; also called 11C5-YIS/YTE
- KD YTE/KD Parental [17]: 0.99 ratio
- KD YTE/KD Parental [18]: 0.69 ratio
- Kd [10]: 0.013 nM
- koff [10]: 4.43e-05 s⁻¹
- kon [10]: 3.42e+06 M⁻¹ s⁻¹
- Kd [11]: 0.00798 nM
- koff [11]: 3.07e-05 s⁻¹
- kon [11]: 3.85e+06 M⁻¹ s⁻¹
